From patent US20230227838A1, “ENHANCED CELL SURVIVAL AGAINST BIOTIC AND ABIOTIC STRESSES THROUGH SALICYLICK ACID-INDUCED NPR1 CONDENSATES” (priority 2020, published 2023)

T1: Myc-CUL3 (Arabidopsis thaliana, UniProt Q9ZVH4 1-732)
T1 construct: also called AtCUL3A (AT1G26830); not shown: N-terminal Myc tag (pEG203)
T1 sequence (looked up): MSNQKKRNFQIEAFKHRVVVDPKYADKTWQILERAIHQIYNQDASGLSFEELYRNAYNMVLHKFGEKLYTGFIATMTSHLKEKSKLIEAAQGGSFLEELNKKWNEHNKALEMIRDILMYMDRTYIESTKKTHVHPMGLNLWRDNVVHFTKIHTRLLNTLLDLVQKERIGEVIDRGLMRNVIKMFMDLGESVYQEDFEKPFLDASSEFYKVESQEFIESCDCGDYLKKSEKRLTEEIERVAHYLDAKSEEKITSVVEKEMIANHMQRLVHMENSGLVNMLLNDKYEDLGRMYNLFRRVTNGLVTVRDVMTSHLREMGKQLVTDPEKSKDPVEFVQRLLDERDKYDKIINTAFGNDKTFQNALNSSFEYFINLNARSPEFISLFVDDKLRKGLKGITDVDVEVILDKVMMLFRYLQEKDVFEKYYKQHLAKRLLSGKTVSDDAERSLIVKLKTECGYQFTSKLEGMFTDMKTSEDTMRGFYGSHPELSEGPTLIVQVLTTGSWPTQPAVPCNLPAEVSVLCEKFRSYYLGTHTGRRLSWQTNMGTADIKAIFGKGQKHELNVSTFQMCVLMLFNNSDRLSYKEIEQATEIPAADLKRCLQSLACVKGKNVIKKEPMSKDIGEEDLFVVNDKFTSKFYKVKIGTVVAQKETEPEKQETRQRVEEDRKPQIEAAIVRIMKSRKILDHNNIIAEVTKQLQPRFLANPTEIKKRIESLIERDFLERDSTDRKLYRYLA

B1: ACTD: NPR1 with the C-terminal domain (CTD) deleted (protein)
chain: MDTTIDGFADSYEISSTSFVATDNTDSSIVYLAAEQVLTGPDVSALQLLSNSFESVFDSPDDFYSDAKLVLSDGREVSFHRCVLSARSSFFKSALAAAKKEKDSNNTAAVKLELKEIAKDYEVGFDSVVTVLAYVYSSRVRPPPKGVSECADENCCHVACRPAVDFMLEVLYLAFIFKIPELITLYQRHLLDVVDKVVIEDTLVILKLANICGKACMKLLDRCKEIIVKSNVDMVSLEKSLPEELVKEIIDRRKELGLEVPKVKKHVSNVHKALDSDDIELVKLLLKEDHTNLDDACALHFAVAYCNVKTATDLLKLDLADVNHRNPRGYTVLHVAAMRKEPQLILSLLEKGASASEATLEGRT
modifications: left off: small tags and cut ends
notes: NPR1 with the C-terminal domain (CTD) deleted
B2: rdr1-HA (other)
chain: MDTTIDGFADSYEISSTSFVATDNTDSSIVYLAAEQVLTGPDVSALQLLSNSFESVFDSPDDFYSDAKLVLSDGREVSFHRCVLSARSSFFKSALAAAKKEKDSNNTAAVKLELKEIAKDYEVGFDSVVTVLAYVYSSRVRPPPKGVSEAADENAAHVAARPAVDFMLEVLYLAFIFKIPELITLYQRHLLDVVDKVVIEDTLVILKLANICGKACMKLLDRCKEIIVKSNVDMVSLEKSLPEELVKEIIDRRKELGLEVPKVKKHVSNVHKALDSDDIELVKLLLKEDHTNLDDACALHFAVAYCNVKTATDLLKLDLADVNHRNPRGYTVLHVAAMRKEPQLILSLLEKGASASEATLEGRTALMIAKQATMAVECNNIPEQCKHSLKGRLCVEILEQEDKREQIPRDVPPSFAVAADELKMTLLDLENRVALAQRLFPTEAQAAMEIAEMKGTCEFIVTSLEPDRLTGTKRTSPGVKIAPFRILEEHQSRLKALSKTVELGKRFFPRCSAVLDQIMNCEDLTQLACGEDDTAEKRLQKKQRYMEIQETLKKAFSEDNLELGNSSLTDSTSSTSKSTGGKRSNRKLSHRRR
notes: not shown: C-terminal HA tag (pLN462)
B3: rdr2: NPR1 with cysteine cluster of RDR2 mutated (C378/385/394A) (protein)
chain: MDTTIDGFADSYEISSTSFVATDNTDSSIVYLAAEQVLTGPDVSALQLLSNSFESVFDSPDDFYSDAKLVLSDGREVSFHRCVLSARSSFFKSALAAAKKEKDSNNTAAVKLELKEIAKDYEVGFDSVVTVLAYVYSSRVRPPPKGVSECADENCCHVACRPAVDFMLEVLYLAFIFKIPELITLYQRHLLDVVDKVVIEDTLVILKLANICGKACMKLLDRCKEIIVKSNVDMVSLEKSLPEELVKEIIDRRKELGLEVPKVKKHVSNVHKALDSDDIELVKLLLKEDHTNLDDACALHFAVAYCNVKTATDLLKLDLADVNHRNPRGYTVLHVAAMRKEPQLILSLLEKGASASEATLEGRTALMIAKQATMAVEANNIPEQAKHSLKGRLAVEILEQEDKREQIPRDVPPSFAVAADELKMTLLDLENRVALAQRLFPTEAQAAMEIAEMKGTCEFIVTSLEPDRLTGTKRTSPGVKIAPFRILEEHQSRLKALSKTVELGKRFFPRCSAVLDQIMNCEDLTQLACGEDDTAEKRLQKKQRYMEIQETLKKAFSEDNLELGNSSLTDSTSSTSKSTGGKRSNRKLSHRRR
modifications: A. thaliana npr1 rdr2 protein
B4: rdr1: NPR1 with cysteine cluster of RDR1 mutated (C150/155/156/160A) (protein)
chain: MDTTIDGFADSYEISSTSFVATDNTDSSIVYLAAEQVLTGPDVSALQLLSNSFESVFDSPDDFYSDAKLVLSDGREVSFHRCVLSARSSFFKSALAAAKKEKDSNNTAAVKLELKEIAKDYEVGFDSVVTVLAYVYSSRVRPPPKGVSEAADENAAHVAARPAVDFMLEVLYLAFIFKIPELITLYQRHLLDVVDKVVIEDTLVILKLANICGKACMKLLDRCKEIIVKSNVDMVSLEKSLPEELVKEIIDRRKELGLEVPKVKKHVSNVHKALDSDDIELVKLLLKEDHTNLDDACALHFAVAYCNVKTATDLLKLDLADVNHRNPRGYTVLHVAAMRKEPQLILSLLEKGASASEATLEGRTALMIAKQATMAVECNNIPEQCKHSLKGRLCVEILEQEDKREQIPRDVPPSFAVAADELKMTLLDLENRVALAQRLFPTEAQAAMEIAEMKGTCEFIVTSLEPDRLTGTKRTSPGVKIAPFRILEEHQSRLKALSKTVELGKRFFPRCSAVLDQIMNCEDLTQLACGEDDTAEKRLQKKQRYMEIQETLKKAFSEDNLELGNSSLTDSTSSTSKSTGGKRSNRKLSHRRR
modifications: A. thaliana npr1 rdr1 protein

Columns and labels:
[1] = system: cytoplasmic condensates (SINCs); assay: Confocal imaging of localization and condensate (body) formation of GFP-fused NPR proteins and variants; format: cell-based, Nicotiana benthamiana; details: no SA treatment / mock
Experimental: (§1) Plant transformation: For plant transformations, the Agrobacterium tumefaciens strain GV3101 was transformed with plant binary vectors carrying the indicated transgenes. For stable expression in Arabidopsis, a floral dipping method was used. For transient expression in N benthamiana, the Agrobacterium carrying the indicated construct was cultured overnight at 28° C. in Luria-Bertani (LB) broth medium supplemented with appropriate antibiotics: spectinomycin (100 μg/ml), kanamycin (50 μg/ml), gentamycin (50 μg/ml), and rifampicin (25 μg/ml). The obtained culture was re-inoculated at 1:10 into fresh growth media with antibiotics and grown for another 4 hr. Cells were then spun down at 1,600 g for 10 min, and inoculum was prepared by resuspending cells to OD600 nm=1 in double distilled water (DDW) containing 200 μM acetosyringone (Sigma). Unless otherwise stated, for co-IP, co-localization, and BiFC assays in N. benthamiana, the proteins were co-expressed at 1:1 mixture of the relevant Agrobacteria inoculums. In all BiFC assays, the pair of YN/YC fusions was co-expressed together with free mCherry to mark the cytoplasm and nucleus, mCherry-NLS to mark the nucleus only, or mCherry-fused test proteins for co-localization analysis. The inoculum was pressure infiltrated into N. benthamiana leaves at the abaxial side using 1 ml syringe without the needle. Due to low overall levels of NPR1-GFP in transgenic plants, a transient expression assay in Arabidopsis seedlings was used to monitor NPR1-GFP subcellular localization after SA treatment (FIG. 2B). To limit the imaging time in this transient assay (2 hours), a higher baseline SA concentration had to be used. Seeds of WT (Col-0) Arabidopsis were germinated on solid half-strength Murashige and Skoog (1/2 MS) medium and grown for 4 days. Agrobacterium carrying the indicated constructs was grown overnight in LB medium supplemented with appropriate antibiotics. The obtained culture was re-inoculated at 1:10 into virulence induction medium [50.78 mM MES, 0.5% Glucose, 1.734 mM NaH2PO4, 5% of 20X-AB mix (373.9 mM NH4C1, 24.34 mM MgSO4, 40.23 mM KCl, 1.36 mM CaCl2 and 0.18 mM FeSO4·7H2O), 200 μM acetosyringone] supplemented with 25 μg/ml rifampicin and grown for another 24 hr at 28° C. to OD600=0.8 (inoculum). Seedlings were vacuum-infiltrated with the inoculum, and at 48 hpi (hours post inoculation), treatments were performed by submerging the transformed seedlings in water or SA solution at indicated concentrations for 2 hr. Entire cotyledons were sampled for microscopy.
Confocal laser scanning microscopy. Unless otherwise indicated, all imaging data and micrographs for single protein imaging, co-localizations, BiFC and time-lapse were obtained from the transient expression in N. benthamiana using the relevant Agrobacteria strains. All imaging was done with confocal laser scanning fluorescence microscopy using Zeiss 880 airyscan inverted confocal microscope with a 40×/1.2 water correction objective. GFP (eGFP) was excited with a 488 nm argon laser and emission was collected with a 505-530 nm band pass filter. YFP was excited with an argon laser using a 514 nm beam splitter, and emission was detected with a 520-555 nm band pass filter. mCherry was excited with a 561 nm diode laser, and emission was detected with a 575-615 nm band pass filter. When eGFP/YFP were imaged together with mCherry, a spectral GASP detector was used to collect emission from eGFP/YFP. Propidium iodide (PI) was excited with 488 nm argon laser and emission was detected with a 590-620 nm band pass filter. Time-lapse imaging was carried out on live leaf tissue samples from N. benthamiana plants transiently expressing the protein of interest. Image acquisition was done in 5 min intervals for the duration of 2 hr by scanning 30 consecutive focal planes along the Z-axis covering the entire thickness of an epidermal cell. Z-projection was done to each time frame stack before composing a final time-lapse file. […]

CUL3 = assay: Co-IP of Myc-CUL3 with HA-fused NPR1 or variants; format: binding, Arabidopsis thaliana; details: for CUL3 pull-down signal in co-IP: 1 mM SA for 5 hr
Experimental: as §1
Protein analysis and IP. Recombinant protein analysis was performed using transient expression in N. benthamiana, or stable over-expression in transgenic Arabidopsis, or expression in E. coli. Total protein extraction from plants was performed by homogenizing leaf tissue in the plant extraction buffer [50 mM Tris-HCl (pH 7.5), 150 mM NaCl, 5 mM EDTA, 0.2% Triton X-100, 0.2% Nonidet P-40] supplemented with 1 mM PMSF, 100 μM MG132, and EDTA-free protease inhibitor cocktail (Roche). For ubiquitinated protein analysis in plants, 100 μM of DUB (deubiquitinase) inhibitor (LifeSensors) and 10 mM NEM were added. Next, the lysates were cleared by centrifugation at 14,000 rpm for 15 min followed by filtering through a 0.2 μm filter. […] Pull-downs or IP experiments were done on total protein extracts by incubating protein samples in the lysis buffer overnight with indicated affinity tag or antibody conjugated to agarose or magnetic beads: GFP-trap agarose beads (Chromotek) for GFP fusions; RFP-trap agarose beads (Chromotek) for mCherry fusions; anti-HA magnetic beads (ThermoFisher) for HA tag fusions; anti-DYKDDDDK coupled magnetic agarose (ThermoFisher) for FLAG tag fusions; and glutathione magnetic agarose (ThermoFisher) for GST fusions. Unless otherwise indicated, after pull-down/IP, beads were washed 3 times and proteins were eluted by boiling in the 2×SDS sample buffer. […]

Myc-CUL3 = target: T1, Myc-CUL3; assay: co-IP, N. benthamiana, 1 mM SA 5 hr
[2] = system: Psm ES4326/AvrRpt2-mediated cell death; assay: Cell death (conductivity/electrolyte leakage, trypan blue) after Psm ES4326/AvrRpt2 inoculation; format: in vivo, Arabidopsis thaliana; details: transgenic plants expressing the mutant in npr1-2 background; 1 mM SA 24 hr before inoculation
Experimental: Chemical treatment, pathogen infection and cell death assays. […] At 2 days, the bacterial colonies were scored.
Trypan blue staining. Leaves of three-week-old Arabidopsis infected with Psm ES4326/AvrRpt2 were sampled at 1 dpi, boiled in 95% ethanol until completely bleached, followed by boiling for 3 min in a 1:1 mixture of 95% ethanol and staining solution (10 ml lactic acid, 10 ml glycerol, 10 g phenol and 10 mg trypan blue, dissolved in 10 ml DDW). The leaves were then de-stained in 2.5 g/ml chloral hydrate solution and transferred to 70% glycerol for subsequent imaging.

Molecule	condensate formation in the absence of SA (constitutive) [1]	CUL3 pull-down in co-IP in the absence of SA (CUL3; absence of SA)	binding result (Myc-CUL3)	protection against cell death induced by Psm ES4326/AvrRpt2 (SA-mediated survival phenotype) [2]	CUL3 pull-down signal in co-IP (CUL3)
B1	formed constitutive condensates	significantly enhanced the interaction with CUL3			
B2			binds		
B3	formed cytoplasmic condensates in the absence of SA treatment			stronger protection	strong interactions with CUL3
B4	formed cytoplasmic condensates in the absence of SA treatment			no protection against cell death	strong interactions with CUL3
